For the test, the target named is T1, GST-tagged full-length TAF15 (human, UniProt Q92804 1-592).
T1 construct: TAF15, human, full length, cloned into pGEX-6p-1; Immobilised on glutathione-Sepharose 4B in the pull-down; also called GST-TAF15; source: E. coli BL21, purified (Glutathione Sepharose)
Nature of the test: pull-down; GST pull-down: GST-TAF15 or GST alone immobilised on glutathione-Sepharose 4B, His-NOP58 added, 1 h at 4 °C in 50 mM Tris-HCl pH 7.5, 150 mM NaCl, 10 mM MgCl2, 10% glycerol, 1% Triton X-100, 1 mM DTT, 1% BSA; western blot; also with in vitro transcribed INHEG. The settings on record: both partners purified.

T1 sequence (Q92804 whole entry): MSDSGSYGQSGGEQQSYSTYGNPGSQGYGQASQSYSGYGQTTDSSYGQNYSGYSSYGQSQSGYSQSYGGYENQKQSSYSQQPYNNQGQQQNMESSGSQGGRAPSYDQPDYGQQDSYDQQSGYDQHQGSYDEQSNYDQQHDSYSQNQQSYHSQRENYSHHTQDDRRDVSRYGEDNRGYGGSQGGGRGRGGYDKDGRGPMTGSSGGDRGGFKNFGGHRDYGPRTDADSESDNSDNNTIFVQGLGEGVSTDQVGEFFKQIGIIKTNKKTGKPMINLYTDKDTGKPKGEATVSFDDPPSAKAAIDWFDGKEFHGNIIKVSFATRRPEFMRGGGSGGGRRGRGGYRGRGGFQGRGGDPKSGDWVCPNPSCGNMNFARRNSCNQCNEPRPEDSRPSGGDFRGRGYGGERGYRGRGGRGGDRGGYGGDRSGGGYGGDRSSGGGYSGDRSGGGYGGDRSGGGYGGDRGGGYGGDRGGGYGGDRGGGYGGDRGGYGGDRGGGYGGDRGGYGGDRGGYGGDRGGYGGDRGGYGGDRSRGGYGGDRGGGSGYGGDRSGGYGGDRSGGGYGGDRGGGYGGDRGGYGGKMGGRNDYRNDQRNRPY

B1: His-tagged full-length NOP58 (natural protein, human, UniProt Q9Y2X3 1-529, looked up)
chain: MLVLFETSVGYAIFKVLNEKKLQEVDSLWKEFETPEKANKIVKLKHFEKFQDTAEALAAFTALMEGKINKQLKKVLKKIVKEAHEPLAVADAKLGGVIKEKLNLSCIHSPVVNELMRGIRSQMDGLIPGVEPREMAAMCLGLAHSLSRYRLKFSADKVDTMIVQAISLLDDLDKELNNYIMRCREWYGWHFPELGKIISDNLTYCKCLQKVGDRKNYASAKLSELLPEEVEAEVKAAAEISMGTEVSEEDICNILHLCTQVIEISEYRTQLYEYLQNRMMAIAPNVTVMVGELVGARLIAHAGSLLNLAKHAASTVQILGAEKALFRALKSRRDTPKYGLIYHASLVGQTSPKHKGKISRMLAAKTVLAIRYDAFGEDSSSAMGVENRAKLEARLRTLEDRGIRKISGTGKALAKTEKYEHKSEVKTYDPSGDSTLPTCSKKRKIEQVDKEDEITEKKAKKAKIKVKVEEEEEEKVAEEEETSVKKKKKRGKKKHIKEEPLSEEEPCTSTAIASPEKKKKKKKKRENED
notes: NOP58, human, full length, cloned into pET-28a; also called His-NOP58; source: E. coli BL21, purified (Ni-NTA)
Regarding B1, the binding result is given as “binds”.

For the origin of these results see paper PMC10657414, “LncRNA INHEG promotes glioma stem cell maintenance and tumorigenicity through regulating rRNA 2’-O-methylation” (Nature Communications, 2023).
